{
  "source": "patent US20020102268A1",
  "biological_target": "uncleaved bovine spleen PARP (poly(ADP-ribose) polymerase) (UniProt P18493)",
  "sequence (P18493 2-1016)": "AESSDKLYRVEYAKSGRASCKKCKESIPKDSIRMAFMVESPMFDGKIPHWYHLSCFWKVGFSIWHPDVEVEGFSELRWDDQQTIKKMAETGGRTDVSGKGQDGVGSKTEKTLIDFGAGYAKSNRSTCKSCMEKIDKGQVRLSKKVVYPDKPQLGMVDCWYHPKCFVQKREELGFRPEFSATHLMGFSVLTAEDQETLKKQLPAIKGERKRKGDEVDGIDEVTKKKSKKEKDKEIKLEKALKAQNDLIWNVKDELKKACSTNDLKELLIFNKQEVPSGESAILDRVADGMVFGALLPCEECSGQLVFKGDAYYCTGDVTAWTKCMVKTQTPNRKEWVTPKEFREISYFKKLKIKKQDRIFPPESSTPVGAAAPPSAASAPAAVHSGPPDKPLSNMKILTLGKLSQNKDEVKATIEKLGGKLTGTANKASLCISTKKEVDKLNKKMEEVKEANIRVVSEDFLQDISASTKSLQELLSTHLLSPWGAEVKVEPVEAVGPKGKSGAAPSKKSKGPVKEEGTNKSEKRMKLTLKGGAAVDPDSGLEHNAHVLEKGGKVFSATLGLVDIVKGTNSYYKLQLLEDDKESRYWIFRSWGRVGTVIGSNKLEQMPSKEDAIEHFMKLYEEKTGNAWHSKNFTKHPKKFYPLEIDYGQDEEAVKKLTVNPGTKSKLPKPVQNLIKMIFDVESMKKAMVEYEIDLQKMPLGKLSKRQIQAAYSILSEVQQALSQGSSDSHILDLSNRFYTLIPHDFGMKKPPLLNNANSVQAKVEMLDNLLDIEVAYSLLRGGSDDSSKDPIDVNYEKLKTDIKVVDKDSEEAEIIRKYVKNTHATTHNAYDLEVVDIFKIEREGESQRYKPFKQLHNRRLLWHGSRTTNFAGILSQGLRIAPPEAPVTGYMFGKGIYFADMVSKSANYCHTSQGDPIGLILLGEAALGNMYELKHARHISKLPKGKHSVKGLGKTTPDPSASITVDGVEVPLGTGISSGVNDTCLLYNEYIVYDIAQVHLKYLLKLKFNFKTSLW",
  "data": [
    {"substance": "recombinant CPP32 (caspase 3)", "values": [
      {"measurement": "cleavage of PARP, seen on Western blot", "value": "two bands corresponding to uncleaved and cleaved PARP were visualized in the cleaved sample"}
    ]}
  ]
}
